Like-named read-outs stand apart in the source and are kept apart here.

Our source for the other values is PMC8423243.

“BG505 Env S241N variant (SOSIP and virus): S241N (PNGS knock-in; direction given for knock-in relative to parental BG505)”: for the setting “N-glycosylation at N241”, the other entry is “abolishes”.

With “BG505 Env P291T (virus) / P291S (SOSIP) variant: P291T (PNGS knock-in at N289; direction given for knock-in relative to parental BG505)”, the other result (N-glycosylation at N289) is recorded as “abolishes”.

For “BG505 Env P291T (virus) / P291S (SOSIP) variant: P291T and S241N + P291T (PNGS knock-ins; direction given for knock-in relative to parental BG505)”, under “N-glycosylation at N289”, the other entry is given as “decreases”.

Take “BG505 Env (BG505 SOSIP trimer and BG505 T332N virus): deletion of the N611 PNGS (N611A virus)”: the other result (N-glycosylation at N611) is “no change”.

On to “BG505 Env (BG505 SOSIP trimer and BG505 T332N virus): N611A (virus)”, for which the other entry (N-glycosylation at N611) is reported as “increases”.

Consider “BG505 Env S241N variant (SOSIP and virus): S241N + P291T (double PNGS knock-in; direction given for knock-in relative to parental BG505)”, for which the other entry (N-glycosylation at N241) was “abolishes”.
